Results published in paper PMC11214832.

Biological target: SARS-CoV-2 Nsp15 catalytically inactive mutant H234A (SARS-CoV-2)
Assay: cryo-EM structure

Substance: SARS-CoV-2 Nsp15 catalytically inactive mutant H234A (enzyme)
- stoichiometry N: 6
